Experimental findings from US20260243776A1 (LEIBNIZ INSTITUT F R ALTERNSFORSCHUNG FRITZ LIPMANN …, published 2026) are described below.

One experiment deals with BRD3 (human, UniProt Q15059 2-726, limits assumed). Briefly: proximity biotinylation in HEK293T cells treated with the PROTAC KB02-JQ1 (10 uM), with or without MG132; recruitment induced by the small molecule.
The target in a further experiment is BRD2 (human, UniProt P25440 1-801, limits assumed). The description is as above.
Chain of BRD2 (P25440 whole entry): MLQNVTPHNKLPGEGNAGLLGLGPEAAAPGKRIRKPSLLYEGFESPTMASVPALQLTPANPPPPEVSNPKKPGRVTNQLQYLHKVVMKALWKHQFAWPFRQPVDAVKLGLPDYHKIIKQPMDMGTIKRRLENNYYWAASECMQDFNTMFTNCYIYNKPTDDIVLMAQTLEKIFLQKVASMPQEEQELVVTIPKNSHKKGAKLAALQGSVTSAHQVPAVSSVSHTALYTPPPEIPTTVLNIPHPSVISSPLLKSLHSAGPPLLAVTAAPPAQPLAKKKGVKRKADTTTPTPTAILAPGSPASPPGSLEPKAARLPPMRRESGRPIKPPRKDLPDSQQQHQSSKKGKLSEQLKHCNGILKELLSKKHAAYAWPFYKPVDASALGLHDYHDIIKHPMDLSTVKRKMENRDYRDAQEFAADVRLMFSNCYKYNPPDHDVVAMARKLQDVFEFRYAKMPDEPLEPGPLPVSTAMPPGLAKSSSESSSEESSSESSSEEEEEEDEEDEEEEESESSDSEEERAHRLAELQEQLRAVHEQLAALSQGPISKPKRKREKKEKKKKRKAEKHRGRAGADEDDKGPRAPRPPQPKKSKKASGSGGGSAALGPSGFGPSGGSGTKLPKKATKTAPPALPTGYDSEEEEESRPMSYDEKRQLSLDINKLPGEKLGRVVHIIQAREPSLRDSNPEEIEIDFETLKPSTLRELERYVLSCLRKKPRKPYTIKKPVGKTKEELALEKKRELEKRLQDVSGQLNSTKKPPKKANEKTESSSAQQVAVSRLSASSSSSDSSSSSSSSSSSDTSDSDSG

Chain of BRD3 (Q15059 2-726 limits assumed): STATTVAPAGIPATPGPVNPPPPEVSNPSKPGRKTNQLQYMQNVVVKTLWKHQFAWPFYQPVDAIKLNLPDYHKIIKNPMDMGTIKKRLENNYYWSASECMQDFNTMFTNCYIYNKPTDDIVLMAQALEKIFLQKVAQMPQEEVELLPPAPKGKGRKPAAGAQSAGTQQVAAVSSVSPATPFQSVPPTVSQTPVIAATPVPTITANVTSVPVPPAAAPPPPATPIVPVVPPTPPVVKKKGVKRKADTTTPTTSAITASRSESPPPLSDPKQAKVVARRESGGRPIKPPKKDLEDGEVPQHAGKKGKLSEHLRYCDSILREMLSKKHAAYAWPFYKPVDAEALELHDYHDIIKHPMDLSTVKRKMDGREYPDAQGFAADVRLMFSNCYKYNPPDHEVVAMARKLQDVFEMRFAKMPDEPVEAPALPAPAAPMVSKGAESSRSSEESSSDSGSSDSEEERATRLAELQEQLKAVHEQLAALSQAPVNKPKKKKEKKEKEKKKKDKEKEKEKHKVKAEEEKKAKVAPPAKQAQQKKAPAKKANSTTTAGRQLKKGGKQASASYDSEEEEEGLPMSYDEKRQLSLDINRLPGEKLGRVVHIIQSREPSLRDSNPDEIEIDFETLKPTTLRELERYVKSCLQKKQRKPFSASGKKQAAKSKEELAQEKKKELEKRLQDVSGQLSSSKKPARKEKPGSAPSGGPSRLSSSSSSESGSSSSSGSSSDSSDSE
Experimental for BRD2: (§1) The expression of BirA* or miniTurbo fusion proteins were induced by a single addition of tetracycline stock (solved in ethanol) exposing the cells to its final concentration of 1 μg/μl in total for 4 days. 2 hours (miniTurbo lines) or 24 hours (BirA* lines) prior to cell harvesting, 50 μM biotin was added to the culture media. […] Upon treatment, cells were washed 3×times with PBS and harvested by trypsinization. For each sample, a pellet corresponding to 20 million cells was collected and snap-frozen in liquid nitrogen.
Experimental for BRD3: as §1

B1: PSMA4-miniTurbo-FLAG (other)
chain: MSRRYDSRTTIFSPEGRLYQVEYAMEAIGHAGTCLGILANDGVLLAAERRNIHKLLDEVFFSEKIYKLNEDMACSVAGITSDANVLTNELRLIAQRYLLQYQEPIPCEQLVTALCDIKQAYTQFGGKRPFGVSLLYIGWDKHYGFQLYQSDPSGNYGGWKATCIGNNSAAAVSMLKQDYKEGEMTLKSALALAIKVLNKTMDVSKLSAEKVEIATLTRENGKTVIRVLKQKEVEQLIKKHEEEEAKAEREKKEKEQKEKDKYPTFLYKVVDSRMASIPLLNAKQILGQLDGGSVAVLPVVDSTNQYLLDRIGELKSGDACIAEYQQAGRGSRGRKWFSPFGANLYLSMFWRLKRGPAAIGLGPVIGIVMAEALRKLGADKVRVKWPNDLYLQDRKLAGILVELAGITGDAAQIVIGAGINVAMRRVEESVVNQGWITLQEAGINLDRNTLAAMLIRELRAALELFEQEGLAPYLSRWEKLDNFINRPVKLIIGDKEIFGISRGIDKQGALLLEQDGVIKPWMGGEISLRSAEKLQDDYKDDDDK
notes: also called A4-mT; PSMA4_miniTurboID
With B1, the binding result with BRD3 and with BRD2 was “binds” throughout.
